Source: patent publication US20240294613A1 (BROAD INSTITUTE, published 2024)

Biological target: SARS-COV-2 spike on authentic SARS-COV-2 virus (SARS-COV-2, UniProt P0DTC2 14-1273)
Experiment: cell-based or functional assay

| Binder | LV IC50 |
| --- | --- |
| BG7-15 (antibody, V domains shown) VH: QVQLVQSGAEVKKPGASVKVSCKASGYTFTSYAISWVRQAPGQGLEWMGWVSAYNGNTNYAQKLQGRVTMTTDTSTNTAYMELRSLRSDDTAIYYCAIPYSSVTFDCWGQGTLVTVSS VL: EIVLTQSPGTLSLSPGERATLSCRASQSVSGTFLAWYQQKPGQAPRLLISGASSRATGIPDRFSGSGSGTDFTLTISRLEPEDFAVYYCQQYGSSRPTFGQGTKLEIKR | 0.114 µg/mL |
| BG7-18 (antibody, V domains shown) VH: EVQLMESGGGLIQPGGSLRLSCAASGFIVSSNYMSWVRQAPGKGLEWVSVIYSGGGTDYADSVKGRFTISRDNSKNTLFLQMNSLRAEDTAVYYCARGAAMVKELFDYWGQGTQVTVSS VL: not shown | 0.115 µg/mL |
